Legend:
[1] = target: cyno PD-1 expressed on cells (cynomolgus monkey) (UniProt B0LAJ3); test: flow cytometry on CHO cells expressing cyno PD-1; negative control; fit value of a flat curve; no unit in the table
[2] = target: human PD-1 expressed on the cell surface (human) (UniProt Q15116); test: flow cytometry on CHO cells expressing human PD-1; negative control; fit value of a flat curve; no unit in the table
[3] = target: human PD-1 expressed on the cell surface (human) (UniProt Q15116); test: cell-based or functional assay

Chain of UniProt Q15116 (Q15116 25-198 limits assumed): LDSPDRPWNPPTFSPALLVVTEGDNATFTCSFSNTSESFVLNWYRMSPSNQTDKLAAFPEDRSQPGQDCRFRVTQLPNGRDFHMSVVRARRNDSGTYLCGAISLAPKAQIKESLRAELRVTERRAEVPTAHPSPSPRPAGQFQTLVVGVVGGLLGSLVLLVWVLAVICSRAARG
Chain of UniProt B0LAJ3 (B0LAJ3 entry or part of it limits assumed): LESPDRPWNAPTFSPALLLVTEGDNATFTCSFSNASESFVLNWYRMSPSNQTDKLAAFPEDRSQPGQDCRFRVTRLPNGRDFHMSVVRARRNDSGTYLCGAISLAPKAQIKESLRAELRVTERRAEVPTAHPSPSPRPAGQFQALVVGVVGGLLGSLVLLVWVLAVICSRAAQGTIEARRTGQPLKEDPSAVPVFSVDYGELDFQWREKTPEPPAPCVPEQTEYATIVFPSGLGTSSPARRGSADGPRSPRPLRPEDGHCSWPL

| Substance | LogEC50 [1] | LogEC50 [2] | IL-17 and IFN-γ levels, human whole blood assay (EC50) [3] [nM] |
| --- | --- | --- | --- |
| huIgG1 Fc | -6.89 | -7.75 | – |
| human IgG Fc fragment | – | – | > 100 |
